Assay results as given in patent US20260132182A1 (published 2026).
Starred links: 1 amine or outer side, 2 acyl side, 3 side chain; linkers in the order of their positions; H or OH if unused. Non-standard residues stand in square brackets, D forms with d. Groups on a side chain read outwards from the residue. No end group written: not given here. *: point of attachment. C20 diacid = O=C(O)CCCCCCCCCCCCCCCCCCC(=O)*; C18 diacid = O=C(O)CCCCCCCCCCCCCCCCC(=O)*; C16 diacid = O=C(O)CCCCCCCCCCCCCCC(=O)*; γGlu = O=C(O)[C@H](CCC(=O)[*:2])N[*:1]; εLys = N[C@@H](CCCCN[*:1])C(=O)[*:2]; Trx = NC[C@H]1CC[C@H](C(=O)O)CC1; AEEA = NCCOCCOCC(=O)O; Aib = CC(C)(N)C(=O)O

B1: Compound 0111 (peptide)
peptide: H[Aib]EGTFTSDVSSYLEEQAAREFIAWLVRGRK([AEEA-AEEA-γGlu-C18 diacid])GGGGEASELSTAALGRLSAELHELATLPRTETGSGSP-NH2
B2: Compound 0120 (peptide)
peptide: H[Aib]EGTFTSDVSSYLEEQAAREFIAWLVRGRK([AEEA-AEEA-γGlu-Trx-C20 diacid])GGGGEASELSTAALGRLSAELHELATLPRTETGSGSP-NH2
B3: Comparator compound 0672 (peptide)
peptide: H[Aib]EGTFTSDVSSYLEEQAAREFIAWLVRGRK([AEEA-AEEA-γGlu-C18 diacid])GGGGEKCNTATCATQRLAEFLRHSSNNFGPILPPTNVGSNTP-NH2
modifications: ends and bridges not checked
B4: Comparator compound 0671 (peptide)
peptide: H[Aib]EGTFTSDVSSYLEEQAAREFIAWLVRGRK([AEEA-AEEA-γGlu-C18 diacid])GGGGEKCNTATCATQRLANFLVHSSNNFGPILPPTNVGSNTY-NH2
modifications: ends and bridges not checked
B5: Pramlintide (peptide)
peptide: KCNTATCATQRLANFLVHSSNNFGPILPPTNVGSNTY
B6: Compound 1806 (peptide)
peptide: EASELSTAALGRLSAELHELATLPRTETGSGSP-NH2
modifications: not fully specified
B7: Comparator compound 0164 (peptide)
peptide: H[Aib]EGTFTSDVSSYLEGQAAKEIFAWLVRGRK([εLys-AEEA-AEEA-γGlu-C18 diacid])GGEASELSTAALGRLSAELHELATLPRTETGSGSP-NH2
B8: Comparator compound 0167 (peptide)
peptide: H[Aib]EGTFTSDVSSYLEEQAAREIFAWLVRGRK([AEEA-AEEA-γGlu-Trx-C20 diacid])GGGGEASELSTAALGRLSAELHELATLPRTETGSGSP-NH2
B9: Comparator compound 0185 (peptide)
peptide: H[Aib]EGTFTSDVSSYLEGQAAKEFIAWLVRGRK([εLys-AEEA-AEEA-γGlu-C18 diacid])GGEASELSTAALGRPSAELHELATLPRTETGSGSP-NH2
B10: Comparator compound 0192 (peptide)
peptide: H[Aib]EGTFTSDVSSYLEEQAAREFIAWLVRGRK([AEEA-AEEA-γGlu-Trx-C20 diacid])GGGGEASELSTAALGRPSAELHELATLPRTETGSGSP-NH2
B11: Comparator compound 0015 (peptide)
peptide: H[Aib]EGTFTSDVSSYLEGQAAK([AEEA-AEEA-γGlu-C18 diacid])EFIAWLVRGRGGQEPGQEPCNTATCATQRLAEFLRHSSNNFGPILPPTNVGSNTP-NH2
modifications: ends and bridges not checked
B12: Comparator compound 0016 (peptide)
peptide: H[Aib]EGTFTSDVSSYLEGQAAK([AEEA-AEEA-γGlu-C18 diacid])EFIAWLVRGRGGQEPGQEPK([AEEA-AEEA-γGlu-C18 diacid])CNTATCATQRLAEFLRHSSNNFGPILPPTNVGSNTP-NH2
modifications: ends and bridges not checked
B13: Comparator compound 0668 (peptide)
peptide: H[Aib]EGTFTSDVSSYLEGQAAK([AEEA-AEEA-γGlu-C18 diacid])EFIAWLVRGRGGQEPGQEPK([γGlu-γGlu-C16 diacid])CNTATCATQRLADFLRHSSPNFGAIPSSTNVGSRTY-NH2
modifications: ends and bridges not checked

target: T1, human GLP-1 receptor (human, UniProt P43220 24-463); assay: cell-based or functional assay

Row | Binder | Human GLP-1R potency [EC50 (pM)] [pM]
1 | B1 | 3
2 | B2 | 9.1

target: T2, human amylin-3 (a) receptor (human, UniProt P30988 25-474; O60896 24-148); assay: cell-based or functional assay
T2 sequence (looked up) 1: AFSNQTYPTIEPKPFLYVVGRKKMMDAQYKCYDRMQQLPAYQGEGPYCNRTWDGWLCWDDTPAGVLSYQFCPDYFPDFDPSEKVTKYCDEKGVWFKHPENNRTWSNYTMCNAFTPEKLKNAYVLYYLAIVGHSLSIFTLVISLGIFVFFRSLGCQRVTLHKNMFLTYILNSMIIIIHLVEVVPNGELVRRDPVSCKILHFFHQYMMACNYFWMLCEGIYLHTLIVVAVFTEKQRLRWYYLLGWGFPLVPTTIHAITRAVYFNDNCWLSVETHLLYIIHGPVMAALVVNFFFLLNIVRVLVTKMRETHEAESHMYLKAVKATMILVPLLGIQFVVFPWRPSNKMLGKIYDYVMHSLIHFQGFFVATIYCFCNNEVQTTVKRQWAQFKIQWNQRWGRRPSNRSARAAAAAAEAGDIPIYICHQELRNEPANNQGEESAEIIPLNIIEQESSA
T2 sequence (looked up) 2: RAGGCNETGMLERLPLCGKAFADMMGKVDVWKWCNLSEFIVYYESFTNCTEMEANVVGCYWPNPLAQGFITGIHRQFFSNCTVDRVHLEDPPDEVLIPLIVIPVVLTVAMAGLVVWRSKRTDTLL

Row | Binder | Human AmyR3 potency [EC50 (pM)] [pM]
3 | B1 | 11.5
4 | B2 | 10.6

target: T1, human GLP-1 receptor; assay: cell-based or functional assay; remark: another data set of the same source

Row | Binder | Human GLP-1R potency [EC50 (pM)] [pM]
5 | B3 | 2.2
6 | B4 | 4.5
7 | B1 | 3

target: T2, human amylin-3 (a) receptor; assay: cell-based or functional assay; remark: another data set of the same source

Row | Binder | Human AmyR3 potency [EC50 (pM)] [pM]
8 | B5 | 7.8
9 | B6 | 5
10 | B3 | 606
11 | B4 | 230
12 | B1 | 11.5

target: T1, human GLP-1 receptor; assay: cell-based or functional assay; remark: another data set of the same source

Row | Binder | Human GLP-1R potency [EC50 (pM)] [pM]
13 | B7 | 852
14 | B8 | 10000
15 | B9 | 13.1
16 | B10 | 10.8
17 | B11 | 45
18 | B12 | 510
19 | B13 | 455

target: T2, human amylin-3 (a) receptor; assay: cell-based or functional assay; remark: another data set of the same source

Row | Binder | Human AmyR3 potency [EC50 (pM)] [pM]
20 | B5 | 7.8
21 | B7 | 29.6
22 | B8 | 10.9
23 | B9 | 5660
24 | B10 | 10000
25 | B11 | 312
26 | B12 | 1550
27 | B13 | 10000
